In patent US20110009597A1, “RECOMBINANT GANODERMA LUCIDIUM IMMUNOMODULATORY PROTEIN (rLZ-8) AND USES THEREOF” (priority 2008, published 2011):

Tests used:
WBC [1] = test: Prevention of radiation leucopenia model of mice, WBC; format: in vivo; set-up: unit not given here; details: for WBC, 5th day (rLZ-8): 5th day of administration before radiation; for WBC, 5th day / WBC, 7th day: after 7.5 Gy γ-ray
Experimental: rLZ-8 preparation of sterile saline. Divide them into 5 μg·kg^−1, 2.5 μg·kg^−1, 1.25 μg·kg^−1, 0.62 μg·kg^−1 dose groups. 0.2 ml/vial.
Genlei™ Scimax™ [Recombinant human granulocyte colony-stimulating factor injection (rhG-CSF)], production lot: 20060403; 150 μg/vial is prepared with sterile normal saline into the preparation of 3.2 μg·kg^−1, 0.2 ml/vial.
(§1) The mice were irradiated by 7.5 Gy γ-ray (180 mV, 15 mA) and then divided into seven groups (n=10): (A) negative control; (B) 5 μg·kg−1 dose; (C) 2.5 μg·kg−1 dose; (D) 1.25 μg·kg−1 dose; (E) 0.62 μg·kg−1 dose; (F) positive control (Genlei™ Scimax™); (G) model group. Before modeling 5 days, mice in each group were administered with Genlei™ Scimax™ and rLZ-8 for 5 days, on the 5th day, mice were radiated, for 5 days, and on the 7th day, drew blood from tail, tested the number of WBC, weight spleen, calculated index of spleen.

human erythrocyte = format: cell-based
Experimental: rLZ-8 prepares 5% of glucose solution into the preparation of 1 mg·ml^−1; blood cell suspension preparation: human blood 4 ml, 1000 r/min centrifugal 10 min, clears supernatant. […] Prepare the obtained erythrocyte with 5% glucose solution into 2% suspension for experiment.
Get 28 clean test tubes and number them, No. 1-5 for rLZ-8 drug group, No.6 for negative control group (5% glucose solution), No. 7 for positive control tube (distilled water), and a total of 4 parallel comparison tubes. By supplying 2% erythrocyte suspension, 5% glucose or distilled water in turn, shaking, put them into incubators 37° C.±0.5° C. immediately for incubation. Observe them every 15 min, 1 h after observe them once for 3 hours. Finishing the observation, put all the solution from the tubes into centrifugal drying tubes, 1500 r, 25 min. Clear the supernatant, read the blank distilled water tube for OD value to calculate the rate of hemolysis.

[2] = test system: mouse peritoneal S180 tumor cells; test: S180 ascites tumor inhibition experiment; format: in vivo, Mice; details: rLZ-8 0.25-1 mg·kg^−1 tail venous injection, 10 days
Experimental: Treatment after 24 h of vaccination. […] Daily weighing, observe the weight changes of mice, drawing weight growth curves.

WBC [3] = test: Treatment of radiation leucopenia model of mice, WBC; format: in vivo; set-up: unit not given here; details: 7.5 Gy γ-ray
Experimental: rLZ-8 preparation of sterile saline. Divide them into 5 ∞g·kg^−1, 2.5 μg·kg^−1, 1.25 μg·kg^−1, 0.62 μg·kg^−1 dose groups. 0.2 ml/vial.
Genlei™ Scimax™ [Recombinant human granulocyte colony-stimulating factor injection (rhG-CSF)], production lot: 20060403; 150m/vial is prepared with sterile normal saline into the preparation of 3.2 μg·kg^−1, 0.2 ml/vial.
as §1, with “group. Together with modeling,” for “group. Before modeling 5 days,”, “for 9” for “for 5”, “days,” for “days, on the 5th day, mice were radiated, for 5 days, and on the 7th day,”

K562 = test: PI single stained flow cytometry, apoptosis of K562; format: cell-based
Experimental: Fluorescence microscope, model Leica ASLMD, K562, NB4. rLZ-8 is classified into high, medium and low three-dose groups respectively, now we prepare them with IMDM culture medium containing 2% FCS into the preparation of 2.5 μg·ml^−1, 0.5 μg/ml, 0.1 μg·ml^−1. […] (PI) 50 μg·ml ^−1.
Establish K562 as the normal control group, rLZ-8 low-dose group (0.1 μg·ml^−1), rLZ-8 medium dose group (0.5 μg·ml^−1), rLZ-8 high-dose group, (2.5 μg·ml^−1); set NB4 as the normal control group, rLZ-8 low-dose group (0.1 μg·ml^−1), rLZ-8 medium dose group (0.5 μg·ml^−1), rLZ-8 high-dose group, (2.5 μg·ml^−1).
Mix K562 and NB4 cells into 24-orifice plate respectively, and supply rLZ-8 in different concentrates, 1 ml/orifice, set 3-orifice multipunches for each group. Put them in 37° C., 5% CO2 incubator for 24 h, collect the cells of each concentrate, PBS washes twice and regulates the cell density to 1×10^6/ml, 70% ice ethanol fixation, adjusts to −20° C. and stays overnight. Wash the cells with PBS twice after fixing the cells, add PI (end density 50 μg·ml^−1) for room temperature and lucifuged hatching 10 min, 1000 r·min^−1 centrifuge 5 min, clear supernatant with disposable 400μ. IPBS re-suspension precipitation. And test on computer in 1 h.

[4] = test system: systemic allergic reaction caused by BSA; test: Systemic allergic reaction in mice caused by BSA; details: for Death number/total / Sensitization number/total: sensitization BSA (i.p.)
Experimental: Prepare rLZ-8 700 μg/ml^−1 with saline and Aluminium hydroxide with PBS buffer. Male mice, 15 vial, were divided into 4 groups: two rLZ-8 dosage groups, positive group, normal control group. […] Positive reaction standard: tic or death. Negative reaction standard: normal.

[5] = rLZ-8 dose 2, shock BSA-rLZ-8 (i.v.)

B1: rLZ-8: Recombinant Ganoderma Lucidum Immune Regulatory Protein expressed in Pichia pastoris (protein, UniProt P14945 2-111, looked up)
Immunomodulatory protein Ling …: SDTALIFRLAWDVKKLSFDYTPNWGRGNPNNFIDTVTFPKVLTDKAYTYRVAVSGRNLGVKPSYAVESDGSQKVNFLEYNSGYGIADTNTIQVFVVDPDTNNDFIIAQWN
With B1 the “WBC, 5th day (rLZ-8)” value (WBC [1]; rLZ-8 0.62 μg·kg^−1) was 10.7 ± 0.45, the “WBC, 5th day” value (WBC [1]; rLZ-8 0.62 μg·kg^−1) was 0.16 ± 0.31 and the “WBC, 7th day” value (WBC [1]; rLZ-8 0.62 μg·kg^−1) was 0.40 ± 0.12. The “WBC, 5th day (rLZ-8)” value (WBC [1]; rLZ-8 1.25 μg·kg^−1) was 12.5 ± 0.45, the “WBC, 5th day” value (WBC [1]; rLZ-8 1.25 μg·kg^−1) was 0.25 ± 0.11 and the “WBC, 7th day” value (WBC [1]; rLZ-8 1.25 μg·kg^−1) was 0.46 ± 0.11. The “WBC, 5th day (rLZ-8)” value (WBC [1]; rLZ-8 2.5 μg·kg^−1) was 12.8 ± 0.54, the “WBC, 5th day” value (WBC [1]; rLZ-8 2.5 μg·kg^−1) was 0.32 ± 0.15 and the “WBC, 7th day” value (WBC [1]; rLZ-8 2.5 μg·kg^−1) was 0.45 ± 0.20. The “WBC, 5th day (rLZ-8)” value (WBC [1]; rLZ-8 5 μg·kg^−1) was 19.5 ± 0.32, the “WBC, 5th day” value (WBC [1]; rLZ-8 5 μg·kg^−1) was 0.32 ± 0.18 and the “WBC, 7th day” value (WBC [1]; rLZ-8 5 μg·kg^−1) was 0.53 ± 0.35. The hmolytic rate (human erythrocyte) was < 5%, the “growth of peritoneal S180 tumor cells (body weight curve)” value [2] was “inhibited mouse peritoneal S180 tumor cells growth” and the “WBC, 5th day” value (WBC [3]; rLZ-8 0.62 μg·kg^−1) was 0.73 ± 0.43. The “WBC, 7th day” value (WBC [3]; rLZ-8 0.62 μg·kg^−1) was 0.26 ± 0.43, the “WBC, 9th day” value (WBC [3]; rLZ-8 0.62 μg·kg^−1) was 0.64 ± 0.01 and the “WBC, 5th day” value (WBC [3]; rLZ-8 1.25 μg·kg^−1) was 0.82 ± 0.45. The “WBC, 7th day” value (WBC [3]; rLZ-8 1.25 μg·kg^−1) was 0.65 ± 0.45, the “WBC, 9th day” value (WBC [3]; rLZ-8 1.25 μg·kg^−1) was 0.70 ± 0.12 and the “WBC, 5th day” value (WBC [3]; rLZ-8 2.50 μg·kg^−1) was 0.69 ± 0.54. The “WBC, 7th day” value (WBC [3]; rLZ-8 2.50 μg·kg^−1) was 0.56 ± 0.54, the “WBC, 9th day” value (WBC [3]; rLZ-8 2.50 μg·kg^−1) was 0.54 ± 0.13 and the “WBC, 5th day” value (WBC [3]; rLZ-8 5 μg·kg^−1) was 0.84 ± 0.32. For the same molecule, the “WBC, 7th day” value (WBC [3]; rLZ-8 5 μg·kg^−1) was 0.31 ± 0.32, the “WBC, 9th day” value (WBC [3]; rLZ-8 5 μg·kg^−1) was 0.90 ± 0.14 and the Apoptosis rate (K562; K562, rLZ-8 0.1 μg·ml^−1, 24 h) was 16.43%. The Apoptosis rate (K562; K562, rLZ-8 0.5 μg·ml^−1, 24 h) was 17.91%, the Apoptosis rate (K562; K562, rLZ-8 2.5 μg·ml^−1, 24 h) was 21.57% and the “systemic allergic reaction caused by BSA (in words)” value ([4]; mouse, in vivo) was “could inhibit systemic allergic reaction”. The Death number/total ([4]; rLZ-8 dose 1, shock BSA (i.v.)) was 0/10, the Sensitization number/total ([4]; rLZ-8 dose 1, shock BSA (i.v.)) was 5/10 and the Death number/total [4, 5] was 0/10. For the same molecule, the Sensitization number/total [4, 5] was 9/10.
